The DeepSol protein solubility set

experiment: soluble on expression in E. coli; label from the status in PepcDB or PDB records

Row | Sequence | soluble on expression in E. coli
1 | MNRLPRIEQYGLIGDTQTSAHVCDDGSIDWLCLPRFDSPAVFASLLGTQKHGSWQISPAPSTGRSGPEKVTERRYRGDSLVLESVWRTPTGSVRVLDFMPPRDGTPQVIRIVEGLTGDVEMLSAMRPRPGYLEHHHHHH | not soluble
2 | MAKALEQPFDVANIPGPKMATLLEKGKPVANMIKKAKRPLLIVGPDMTDEMFERVKKFVEKDITVVATGSAITRFIDAGLGEKVNYAVLHELTQFLLDPDWKGFDGQGNYDLVLMLGSIYYHGSQMLAAIKNFAPHIRALAIDRYYHPNADMSFGNLWKKEEDYLKLLDEILAEL | soluble
3 | SLIKKVKIKKFNGRDFYDMEDYVAVEESYNIFINGEFVKSLSMSPNFLNEFAVGFAISEGFLNKIDKVEVDKNNINIFGEKNDREIKNNKNNKEIKIDIEIIKKIISYEIKAKYWEITGSFHWASMFDLKGNSIIFVEDIGRHNAVDKVIGYAILNNYNLNKLILRYSGRIPSDIVKKAINSGLNIIISKSPPTDKAIELAEENNILLIGFARNGKFNIYTSGRLWEE | soluble
4 | MGSDKIHHHHHHMTVAIDRTKGDQSTPGNIIRGEGYALIRNSEATPDPDKVIHIPCADSFSVIVQLRDFNSHRLWNGNKLVFDGGHPRKSISIAYLGDEIKCQHRTTYDNVRFMLPRASIKEFLYEEGQRASAEPERIIGVDDPVVYHLALALLPSFARAGERNELFIEQVMLALLTHVQDRFASTQVPVCTGKGLAPWQLRRAKELIAGHLAEGVSVARLAEECGLSRSYFTKAFKCSTGVSPHEWLMRMRVDRAKELMLGSDEPLSQIGVACGFSDQPHFSRIFLRLAGASPSTWRRVKRQRTDAAL | not soluble
5 | MGHHHHHHMPVVDSDGDAVQLNLGGNYPLYTIQSAAIGFRGGLSTLRKDACKSYVYEAPETDRGLPVGFSASATSQPVMQLGSRYKFSFSMPVPLICDTAWSIGKSETNGGISFQPITAGDYFYLNNFSWFEARSTEETGVYKLAACSCEFCKIACPEVGSFNVNGRTLLGIGGEHFTVQFQKFD | soluble
6 | MKRFLLSLLALTTLVGCNSKDDNTPTPAKPLSEQQQAYLPTKKVKRISCTYIDEGTTSNTNSPNSYLEAELYNQTYTLRTAEYLYEYDNMGRINKVTIKQERKPEDVRTFTYKDYSVIITAPYDTEVNGQYDIQAVEYGLNAAGNTLGFGMYNEKQQLKSVGDEIITWENDNITKIISKDDREGNKILETVLTYYNNENKNKFNVFSFDFSRESRSFMNYFEMPIALIIGASPKNLPKKVVIPSSRYNGEIENKIIELTYTFDNDGFVKNISENEYLRTGTSVGAYYQNSSYGDIDATTMSNTLQDLMTKIDNGTVTGKSYKIINNKQNERVIQFTIPIKVEKDSNGKPLNLIVDKICEYTFRYITENNQKKLSQIEMNITFKPHLVTHYELNY | not soluble
7 | MSDMTDMLEDEMIDPVTGEIIDQKDLAERLLAQAKEQGVSLVGPGGLLNQLTKNVLETALNAELTEYLGHEHGETPLGSNMRNGPRTKTVLTVESGRFRSRSRGTVTGRSSR | not soluble
8 | MGSDKIHHHHHHMPPFILNSQNVFDYLSSLNLCTLEEGESSKIELKPAKNFNLLITFPEGRKLLVKQERHNLEGKTTGEFVLEWRIHDFVSRFPELNHIRSYLSEAIYFNWENSIIIFNYLDNYRDLMDFYVKENLNLFPTQLANAVGTTLALIHRTSFNCEEYRDFFQNPGESKSNPKTPHLNRGLDRLTPEIFGKVPADGLRFFALYQRYDSLGQAIAQLINSFTPCCLTHNDLKLNNILVSLDWEDIGDENIVRLIDWERGSWGDPANDLGTLIASYLQIWLYSMVTGKSIAIEESLRLAATPLYVLQPSLRELVIAYLTHFPEILEHHPDFLQRVMQFCGLALITAIQAQLQYEKTFGNVGICMLQVAKSLLCRPEASVQTIFGVQLSDLSPVSLSQV | not soluble
9 | KQLLTLKIKCSNQPERQILEKQLPDSMTVQKVKGLLSRLLKVPVSELLLSYESSKMPGREIELENDLQPLQFYSVENGDCLLVR | soluble
10 | MQQANLGDGVATARLLSRSDWGARLPKSVEHFQGPAPYVIIHHSYMPAVCYSTPDCMKSMRDMQDFHQLERGWNDIGYSFGIGGDGMIYTGRGFNVIGAHAPKYNDKSVGIVLIGDWRTELPPKQMLDAAKNLIAFGVFKGYIDPAYKLLGHRQVRDTECPGGRLFAEISSWPHFTHINDTEGVSSTTAPVVPHVHPQAAAPQKPHQSPPAAPKV | soluble
11 | MMYIYTYTDPFGKRRYTYSKDLVKLREKEQKLLKDQLDGLDVYAAGNANLNFVFDRYISTKTELRRTTYTNYMYMYDHYVRDSFGKKKIGEIKYSDVLYFYYHLINERKLQVNTLETIHTVLHPTFQLAVRDDIIRNNPSHGVMSEIKKKPGRNHGVRHALTVEQQRAFMNYTSNSPVFNHWAPLFTVLLGTGCRIGEIIGIRWEDIDLEKRLININHSVTYYPRRAETTKCEFAVSLPKTEAGIRTVPMMEPVYNAFMEEYEYQKENGFSTVTLDGMEGFIFTNRFGNLHNPQAVNRTIKRI | not soluble
12 | EKAEDCWELQISPELLAHGRQKILDLLNEGSARDLRSLQRIGPKKAQLIVGWRELHGPFSQVEDLERVEGITGKQMESFLKANILGLAAGQ | soluble
13 | AWFDWPVHRVYVNIGKTRRFHQHYYRRDVGSHVWQHNPVHRRGVAYRDRKTSDFYGKRPPRMAPVRPETRGYPGKFPGRPESRQQQPARERRDVPGAPQTGKGPGQVPRRDSTVAPQAQPPQREQVQKPARRDTPFQGVGEGSFERRAIKRGESSIRSVTPAPQGGGRGGWSGQRAPSGGGRGGGEMRMPGGGGGGGRGGGKKEFR | not soluble
14 | MGSDKIHHHHHHLSISIGSIKRAEAGKNILYRTLVQLSEFFHISIEDLIGDIPVSLWDYVRERPTQLIPCIGRDWELSLLQKLQLSSKTGLKTACVYGMQGLGKTSLVRHFLSRLDQTNWRALYLCSLDQGTFLRRFICTLLDISEIFDDEQLRFRIKMISTSPLVYFYLLRLSGLVLHKSELQAINNLSENRLHEVEVLSVMGLIQNFKQRKVSVLAIDSLHILNEGQLRVIKIFTQNMITQPILIIFSLTDVHRLLYLPDWLQSSNQIQLKPLQAIAMNALVNNEVEMNPCQPMKLAAYKKIVVQRARGNPLILKALIKSKRPDQDFPEEMVNSVQGMLTQLTGIECRLLQFLAACGPCVSIDTLELFNSQLSEPCICLLHRLVRIGFLYPRSECYIFRHILIWEIVKAQMNDSDTASVYSEQHNRLNA | not soluble
15 | GSMPHIKGHEGDPCLRSSDCIDGFCCARHFWTKICKPVLHQGEVCTKQRKKGSHGLEIFQRCDCAKGLSCKVWKDATYSSKARLHVCQKI | soluble
16 | MGLNIGDLLGSTPAKDQGCSRTCESQFCTIAPLLRYGKYCGILYSGCPGERPCDALDACCMVHDHCVDTHNDDYLNTMCNENLLSCIDRVSGATFPGNKCNVGQTASVIRGVIETAVFAGKILHKRDDGQ | soluble
17 | RKILDSKAIDLMNALMRLNQIRPGLQYKLLSQSGPVHAPVFTMSVDVDGTTYEASGPSKKTAKLHVAVKVLQAMGYPTGFDADI | soluble
18 | MAHHHHHHMCLVKLYKRCFVRVPPHCVTVVYETRRNSILASSMEEANNELPQVSHFRPLMYIVSLLLYRSKKLVIVPPTSFFSTFTLPCSVLDESGDGEVVDCTVEDIHVTDGSVRMVMTIRYCIPINELERYLAAVGPTAPNERIALAAAGAARARGAELSVGLIINKSKRDTAFLEPFRAHLSSKLMSESCVKVLDVVVEAAEIADRSLGG | not soluble
19 | MKARQQKYCDKIANFWCHPTGKIIMSLAGKKIVLGVSGGIAAYKTPELVRRLRDRGADVRVAMTEAAKAFITPLSLQAVSGYPVSDSLLDPAAEAAMGHIELGKWADLVILAPATADLIARVAAGMANDLVSTICLATPAPVAVLPAMNQQMYRAAATQHNLEVLASRGLLIWGPDSGSQACGDIGPGRMLDPLTIVDMAVAHFSPVNDLKHLNIMITAGPTREPLDPVRYISNHSSGKMGFAIAAAAARRGANVTLVSGPVSLPTPPFVKRVDVMTALEMEAAVNASVQQQNIFIGCAAVADYRAATVAPEKIKKQATQGDELTIKMVKNPDIVAGVAALKDHRPYVVGFAAETNNVEEYARQKRIRKNLDLICANDVSQPTQGFNSDNNALHLFWQDGDKVLPLERKELLGQLLLDEIVTRYDEKNRR | not soluble
